Consider one substance from patent publication US20180194862A1.

For this experiment, the target named is human CD40 on cells (HEK293 stable transfectants, HEK-Blue CD40 cells, human B cells, monocytic cells, dendritic cells) (human) (UniProt P25942). The experiment can be described thus: cell-based or functional assay.
Chain of human CD40 on cells (HEK293 stable transfectants, HEK-Blue CD40 cells, human B cells, monocytic cells, dendritic cells) (human) (P25942 21-277 limits assumed): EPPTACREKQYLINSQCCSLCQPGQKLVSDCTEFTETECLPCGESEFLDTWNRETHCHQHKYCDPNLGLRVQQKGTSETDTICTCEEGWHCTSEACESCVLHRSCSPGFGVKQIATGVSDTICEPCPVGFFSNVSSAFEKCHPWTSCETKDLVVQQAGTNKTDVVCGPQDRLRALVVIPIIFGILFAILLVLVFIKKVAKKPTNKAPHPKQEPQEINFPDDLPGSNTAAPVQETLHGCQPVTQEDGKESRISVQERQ

“anti-human CD40 G28-5 (mouse IgG1) (Biolegend) (antibody)” came in with a Monocyte activation (THP1-Xblue, OD655) of 0.12 OD655 and a moDC activation (IL-12p70) of 139 pg/mL.
